Here are results for five compounds from US20250325675A1, “APTAMER, CONJUGATE, COMPOSITION, METHOD FOR PREPARING SAME, AND USE THEREOF” (priority 2022, published 2025).

Non-standard residues stand in square brackets, D forms with d. Residues, ends and D or L forms follow the SMILES beside them. *: point of attachment. Dolaproine = CO[C@@H]([C@@H]1CCCN1)[C@@H](C)C(=O)O; Dil = CC[C@H](C)[C@H](NC)[C@@H](CC(=O)O)OC; {MMAE} = monomethyl auristatin E payload; X1 = C[C@@H](N*)[C@@H](O)c1ccccc1; {Cy5} = cyanine 5 fluorescent dye; NMeV = CN[C@H](C(=O)O)C(C)C

In data set [1] the test system is U118MG glioma subcutaneous tumor. Briefly: In vivo anti-tumor activity in U118MG subcutaneous tumor mice (Experimental Example 11). Also on record: species or system NOD-SCID mice. On the procedure:
The mice in this experiment were purchased from SPF Co., LTD: the germline was NOD-SCID, the grade was SPF, male, 6-8 weeks old; U118MG neuroglioma cells were purchased from Jennio.
The conjugate AP2 above was formulated into a 1.94 mg/mL solution with PBS. Conjugate 20 was respectively formulated into 0.625 mg/mL, 1.25 mg/mL and 2.06 mg/mL solutions with PBS (all calculated based on the amount of aptamer). MMAE (purchased from Shanghai Macklin Inc., Lot No. C12886583) was dissolved into a 0.038 mg/mL solution with a mixed solution of 10% DMSO+90% PBS (volume ratio).
The day of inoculation is designated as D1, and administration is performed once on D8, D12, D16 and D20.
36 mice were randomly divided into the following 6 groups (6 mice per group):
For blank control group 1, PBS was administered by tail vein injection with a single administration volume of 10 μL/g. […]
The long diameters and short diameters of the tumors were measured in vitro. The tumor volume was calculated according to the equation ½ (long diameter×short diameter^2). Prior to the first administration on D8, the tumor volumes in each group were measured and the average tumor volumes were recorded; the tumor volumes in each group were measured and recorded from D16 (twice a week).

In data set [2] the test system is U118MG subcutaneous tumor. The data set is described as follows: Long-interval administration in U118MG subcutaneous tumor model mice (Experimental Example 23). The note with it: 0.1 or 0.3 mg/kg subcutaneous on D8, D11, D15, D29, D32, D36. The format is in vivo. On the procedure:
According to the method of Experimental Example 4, 42 mice inoculated with U118MG subcutaneous tumor were obtained, and were further fed after injection.
MMAE was dissolved into solutions with concentrations of 0.03 mg/mL and 0.01 mg/mL with 10% DMSO+90% serum-free DMEM medium (volume ratio). Conjugate 39 was dissolved into solutions with concentrations of 0.5 mg/mL and 0.165 mg/mL (based on aptamer). Comparative conjugate 44 was dissolved into solutions with concentrations of 0.5 mg/mL and 0.165 mg/mL (based on aptamer).
7 days after inoculation of U118MG cells, all mice were randomly divided into seven groups (6 mice per group), and each group of mice was administered. […] The mice were weighed before administration and the administration volume was calculated according to weight. […]
The tumor volumes were measured on D1, D9, D16, D19, D21, D24, D26, D29, D32, D36, D39, D43, D47, D53, D57, D60, D64, D67, D71, D74, D78, D81, D84, D88, D92, D95, and D99, wherein the blank control group was measured on D53, and test groups 7a, 7b and control group 7c were measured on D60, and then the experiment was terminated.
The long diameters and short diameters of the tumors were measured in vitro. The tumor volume was calculated according to the equation ½ (long diameter×short diameter^2). After the experiment was terminated, the tumor tissues were taken and weighed, and the average value was calculated.

The subject of data set [3] is U118MG glioma subcutaneous tumor. Briefly: In vivo distribution in U118MG cell subcutaneous tumor model mice (Experimental Example 4). Also on record: species or system NOD-SCID mice. Here is the method:
U118MG human glioma cells in the logarithmic growth phase were selected and digested (0.25% pancreatic enzyme).
The mice were further fed for 20 days after injection.
The mice inoculated with U118MG above were randomly divided into 3 groups (4 mice per group). For the 4 mice per group, the administration volume was calculated according to 10 μL/g body weight, and AP1, AP2 and comparative AP11 were respectively administered to different groups of mice by tail vein injection and designated as test group 4A1, test group 4A2 and control group 4A3. Thus, the administration dosage of each mouse was 3 mg/kg (based on aptamer). Another mouse inoculated with U118MG above was administered with 1×DMEM medium by tail vein injection (the administration volume was 10 μL/g body weight), and designated as blank control group 4Y.

Data set [4] concerns U118MG in situ brain glioma. Briefly: In vivo distribution in U118MG cell tumor in situ model mice (Experimental Example 5). To be noted: control groups 5C (intrathecal 100 μg) and 5F (tail vein 3 mg/kg); 24 h and 48 h.
Experimental: (§1) U118MG human glioma cells in the logarithmic growth phase cultured as described in experimental Example 4 were selected and digested with 0.25% pancreatic enzyme. The cells were collected, the supernatant was aspirated, and then the cells were resuspended in DMEM medium supplemented with 10% FBS to be formulated into a cell culture solution with a cell density of 4×10^7 cells/mL.
(§2) Experimental animals were 16 NOD-SCID mice (male, 12 weeks old, purchased from SPF (Beijing) Biotechnology Co., LTD.). […]
(§3) AP1, AP2 and comparative AP11 were respectively dissolved into conjugate solutions with a concentration of 0.3 mg/mL (based on aptamer) with 1×DMEM medium. […] The administration dosage for all animals was calculated according to body weight, the administration volume was all 10 μL/g, and the administration dosage was 3 mg/kg per animal (based on the amount of aptamer). […]
(§4) At 24 h after administration, one mouse in each group was respectively euthanized and brain tissue was taken, and the remaining mice were euthanized at 48 h after administration and brain tissues were taken. The brain tissues of mice were taken for fluorescence imaging in IVIS Lumina Series III.
The test system of data set [5] is A549 subcutaneous tumors. The data set is described as follows: In vivo activity in A549 subcutaneous tumor model mice (Experimental Example 25). The note with it: 5 mg/kg (MMAE equivalent 0.3 mg/kg) D8, D12, D15, D19; 0.6 mg/kg MMAE equivalent D46, D50, D54; at each period of time. Here is the method:
According to the method of Experimental Example 4, 30 mice inoculated with A549 subcutaneous tumors were obtained, and were further fed after injection.
Conjugate 20 and conjugate 39 were dissolved into conjugate solutions with a concentration of 1 mg/mL (based on aptamer) with serum-free DMEM medium. Comparative conjugate 43 was dissolved into a conjugate solution with a concentration of 0.8 mg/mL (based on aptamer). MMAE was dissolved into a solution with a concentration of 0.06 mg/mL with 10% DMSO+90% serum-free DMEM medium (volume ratio).
7 days after the inoculation of A549 human lung cancer cells, all mice were divided into groups (6 mice each group), and each mouse was administered. The day of administration was designated as D8. The mice were weighed before administration, and the administration volume was calculated according to mouse body weight.
Each group of mice was administered once on D8, D12, D15, and D19, four times in total. […]
Tumor volumes were measured on D1, D9, D16, D19, D22, D26, D30, D36, D40, D43, D47, D50, D54, and D57, wherein the blank control group was measured on D54, and then the experiment was terminated.
The long diameters and short diameters of the tumors were measured in vitro. The tumor volume was calculated according to the equation ½ (long diameter×short diameter^2).

The test system of data set [6] is U118MG subcutaneous tumor. The data set is described as follows: In vivo distribution of conjugates with different modifications in U118MG subcutaneous tumor model mice (Experimental Example 6). Also on record: species or system NOD-SCID mice. To be noted: 3 mg/kg tail vein. On the procedure: U118MG subcutaneous tumor model mice were prepared according to the method described in experimental Example 4.
9 mice were divided into 3 groups (3 mice per group). AP2, AP3 and comparative AP12 solutions were respectively administered to each mouse of each group by tail vein injection. […] The three groups of mice were respectively designated as test group 6A, test group 6B and test group 6C. […] On Day 10 after administration, one mouse of blank control group 6Y and one mouse of test group 6A was respectively euthanized and tumor tissues were taken for fluorescence imaging, and the results are shown in FIG. 5H. In FIGS. 5A-5H, Blank represents blank control group 6Y.

The subject of data set [7] is U118MG in situ brain glioma. The note with it: mouse, in vivo, 3 mg/kg.
Experimental: as §1, §2, §3, §4

Consider `CC[C@H](C)[C@@H]([C@@H](CC(=O)N1CCC[C@H]1[C@H](OC)[C@@H](C)C(=O)N[C@H](C)[C@@H](O)c1ccccc1)OC)N(C)C(=O)[C@@H](NC(=O)[C@@H](NC)C(C)C)C(C)C` [MMAE, Monomethylauristatin E, reference compound] (H-[NMeV]V[Dil][Dolaproine]-X1), for which the “growth rate of tumor volume” value in data set [1] (control group 3: 0.3 mg/kg tail vein on D8, D12, D16, D20) is recorded as “growth rate of the tumor volume was reduced”; in data set [2], “growth rate of tumor volume was reduced”.
For “CY5-UfCfUfAUfGGCfUfGCfCfGAUfCfUfGGUfCfUfCfCfAUfGUfACfGUf (UCUAUGGCUGCCGAUCUGGUCUCCAUGUACGU; 2'-fluoro at CU, RNA at AG, 5' {Cy5}, backbone not given here) [comparative AP11, reference compound]”, the “fluorescence signal in mice / at site of tumor inoculation” value in data set [3] (3 mg/kg tail vein injection, 1 h, 4 h, 24 h, 48 h after administration) is reported as “substantially no or weak fluorescence signal”. The “fluorescence signal at the tumor site, brain tissue” value in data set [4] was “no obvious fluorescence signal at the tumor site”.
For “MMAE-CmUmGmGmAmGmUmUmCmAmGmAmCmGmUmUmGmUmGmCmUmCmUmUm (CUGGAGUUCAGACGUUGUGCUCUU; all 2'-O-methyl, 5' {MMAE}, backbone not given here) [conjugate 39]”, the “tumor volume versus control groups 25b (MMAE) and 25e (comparative conjugate 43)” value in data set [5] was “smaller than those of control groups 25b and 25e”.
Take “CY5-CmUmGmGmAmGmUmUmCmAmGmAmCmGmUmGmUmUmGmCmUmCmUmUmCmCmGmAmUmCmUmCm [AP2]”: the “fluorescence signal in mice / at site of tumor inoculation” value in data set [3] (mouse, in vivo) was “strong fluorescence signal at the sites of tumor inoculation”. Besides, in data set [6] (4 h to 24 h after administration), the “fluorescence intensity in vivo / tumor” value is recorded as “still show high fluorescence intensity”. Moreover, in data set [6] (48 h to Day 10 after administration), the “fluorescent signal in vivo / tumor” value is “still show strong fluorescent signal”. Also, the “tumor volume over time” value in data set [1] (control group 2: 15.5 mg/kg tail vein on D8, D12, D16, D20) is given as “increased rapidly”. Further, in data set [7], the “fluorescence signal at brain glioma” value was “obvious fluorescence signals at both 24 and 48 h”.
Turning to “MMAE-CmUmGmGmAmGmUmUmCmAmGmAmCmGmUmGmUmUmGmCmUmCmUmUmCmCmGmAmUmCmUmCm (CUGGAGUUCAGACGUGUUGCUCUUCCGAUCUC; all 2'-O-methyl, 5' {MMAE}, backbone not given here) [conjugate 20]”, in data set [5], the “tumor volume versus control groups 25b (MMAE) and 25e (comparative conjugate 43)” value was “smaller than those of control groups 25b and 25e”.
